T1: DFNB31_2, Q9P202
T1 sequence (Q9P202 274-371, limits assumed, looked up): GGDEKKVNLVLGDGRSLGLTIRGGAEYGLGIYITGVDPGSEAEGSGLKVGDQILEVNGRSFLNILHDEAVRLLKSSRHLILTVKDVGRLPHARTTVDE

T2: DFNB31_3, Q9P202
T2 sequence (Q9P202 811-907, limits assumed, looked up): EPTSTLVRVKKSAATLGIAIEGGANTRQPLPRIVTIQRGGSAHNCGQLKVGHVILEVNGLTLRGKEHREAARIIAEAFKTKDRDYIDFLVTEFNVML

T3: DLG3_3, Q92796
T3 sequence (Q92796 374-475, limits assumed, looked up): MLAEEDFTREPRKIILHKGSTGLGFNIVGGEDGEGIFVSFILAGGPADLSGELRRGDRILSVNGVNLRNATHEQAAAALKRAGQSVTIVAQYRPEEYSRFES

T4: DVL3, Q92997
T4 sequence (Q92997 244-331, limits assumed, looked up): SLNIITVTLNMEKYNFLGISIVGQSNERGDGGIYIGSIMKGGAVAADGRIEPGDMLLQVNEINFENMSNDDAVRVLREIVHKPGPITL

T5: GRIP1_5, Q9Y3R0
T5 sequence (Q9Y3R0 568-668, limits assumed, looked up): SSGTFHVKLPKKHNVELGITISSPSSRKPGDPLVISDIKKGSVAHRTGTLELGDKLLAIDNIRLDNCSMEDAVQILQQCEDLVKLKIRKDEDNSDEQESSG

T6: GRIP1_7, Q9Y3R0
T6 sequence (Q9Y3R0 999-1096, limits assumed, looked up): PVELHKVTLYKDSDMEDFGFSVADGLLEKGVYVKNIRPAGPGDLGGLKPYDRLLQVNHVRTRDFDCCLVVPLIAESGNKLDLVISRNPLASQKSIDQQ

T7: LIN7C, Q9NUP9
T7 sequence (Q9NUP9 88-185, limits assumed, looked up): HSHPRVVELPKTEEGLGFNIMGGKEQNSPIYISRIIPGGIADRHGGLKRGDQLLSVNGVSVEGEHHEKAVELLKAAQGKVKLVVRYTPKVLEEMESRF

T8: LNX2_2, Q8N448
T8 sequence (Q8N448 334-432, limits assumed, looked up): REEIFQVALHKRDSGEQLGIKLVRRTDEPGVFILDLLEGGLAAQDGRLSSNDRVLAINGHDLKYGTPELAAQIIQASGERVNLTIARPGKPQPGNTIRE

T9: LNX2_3, Q8N448
T9 sequence (Q8N448 463-564, limits assumed, looked up): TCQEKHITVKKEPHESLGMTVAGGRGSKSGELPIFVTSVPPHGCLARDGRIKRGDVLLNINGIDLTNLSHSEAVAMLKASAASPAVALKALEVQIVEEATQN

T10: MPP2, Q14168
T10 sequence (Q14168 180-250, limits assumed, looked up): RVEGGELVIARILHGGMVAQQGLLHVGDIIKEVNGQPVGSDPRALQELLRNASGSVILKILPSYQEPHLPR

T11: NHERF3_1, Q5T2W1
T11 sequence (Q5T2W1 4-100, limits assumed, looked up): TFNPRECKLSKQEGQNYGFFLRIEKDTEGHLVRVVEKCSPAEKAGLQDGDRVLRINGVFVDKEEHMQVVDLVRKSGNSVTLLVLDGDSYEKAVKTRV

T12: PTPN13_1, Q12923
T12 sequence (Q12923 1088-1188, limits assumed, looked up): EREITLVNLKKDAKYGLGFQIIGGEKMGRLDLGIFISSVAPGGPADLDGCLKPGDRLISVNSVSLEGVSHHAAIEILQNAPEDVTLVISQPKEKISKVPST


target: T1, DFNB31_2, Q9P202; assay: holdup assay; set-up: key: below the threshold = too weak to quantify, mostly under pKd 3.1 to 4; details: plain residues with an end cap or a label only (N-terminal biotin on a linker: ado-ado)

Binder | pKd
MQHQRTHTRV [ZSCAN30, Q86W11] | below the threshold
NIAESLESLV [PTPRZ1, P23471] | below the threshold

target: T2, DFNB31_3, Q9P202; assay: holdup assay; set-up: key: below the threshold = too weak to quantify, mostly under pKd 3.1 to 4; details: plain residues with an end cap or a label only (N-terminal biotin on a linker: ado-ado)

Binder | pKd
MQHQRTHTRV [ZSCAN30, Q86W11] | below the threshold
NIAESLESLV [PTPRZ1, P23471] | below the threshold

target: DLG1_1, Q12959; assay: holdup assay; set-up: key: below the threshold = too weak to quantify, mostly under pKd 3.1 to 4; details: plain residues with an end cap or a label only (N-terminal biotin on a linker: ado-ado)

Binder | pKd
MQHQRTHTRV [ZSCAN30, Q86W11] | 4.41
NIAESLESLV [PTPRZ1, P23471] | 4.57

target: T3, DLG3_3, Q92796; assay: holdup assay; set-up: key: below the threshold = too weak to quantify, mostly under pKd 3.1 to 4; details: plain residues with an end cap or a label only (N-terminal biotin on a linker: ado-ado)

Binder | pKd
MQHQRTHTRV [ZSCAN30, Q86W11] | 4.3
NIAESLESLV [PTPRZ1, P23471] | below the threshold

target: T4, DVL3, Q92997; assay: holdup assay; set-up: key: below the threshold = too weak to quantify, mostly under pKd 3.1 to 4; details: plain residues with an end cap or a label only (N-terminal biotin on a linker: ado-ado)

Binder | pKd
MQHQRTHTRV [ZSCAN30, Q86W11] | below the threshold
NIAESLESLV [PTPRZ1, P23471] | below the threshold

target: FRMPD3, Q5JV73; assay: holdup assay; set-up: key: below the threshold = too weak to quantify, mostly under pKd 3.1 to 4; details: plain residues with an end cap or a label only (N-terminal biotin on a linker: ado-ado)
Sequence (Q5JV73 12-100): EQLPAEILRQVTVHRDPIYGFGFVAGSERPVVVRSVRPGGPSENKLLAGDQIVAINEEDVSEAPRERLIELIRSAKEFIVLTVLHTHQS

Binder | pKd
MQHQRTHTRV [ZSCAN30, Q86W11] | below the threshold
NIAESLESLV [PTPRZ1, P23471] | below the threshold

target: T5, GRIP1_5, Q9Y3R0; assay: holdup assay; set-up: key: below the threshold = too weak to quantify, mostly under pKd 3.1 to 4; details: plain residues with an end cap or a label only (N-terminal biotin on a linker: ado-ado)

Binder | pKd
MQHQRTHTRV [ZSCAN30, Q86W11] | below the threshold
NIAESLESLV [PTPRZ1, P23471] | below the threshold

target: T6, GRIP1_7, Q9Y3R0; assay: holdup assay; set-up: key: below the threshold = too weak to quantify, mostly under pKd 3.1 to 4; details: plain residues with an end cap or a label only (N-terminal biotin on a linker: ado-ado)

Binder | pKd
MQHQRTHTRV [ZSCAN30, Q86W11] | below the threshold
NIAESLESLV [PTPRZ1, P23471] | below the threshold

target: GRIP2_6, Q9C0E4; assay: holdup assay; set-up: key: below the threshold = too weak to quantify, mostly under pKd 3.1 to 4; details: plain residues with an end cap or a label only (N-terminal biotin on a linker: ado-ado)
Sequence (Q9C0E4 648-740): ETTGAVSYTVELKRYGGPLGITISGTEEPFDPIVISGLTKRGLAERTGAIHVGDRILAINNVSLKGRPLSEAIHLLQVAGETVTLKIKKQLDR

Binder | pKd
MQHQRTHTRV [ZSCAN30, Q86W11] | below the threshold
NIAESLESLV [PTPRZ1, P23471] | below the threshold

target: IL16_3, Q14005; assay: holdup assay; set-up: key: below the threshold = too weak to quantify, mostly under pKd 3.1 to 4; details: plain residues with an end cap or a label only (N-terminal biotin on a linker: ado-ado)
Sequence (Q14005 1107-1207): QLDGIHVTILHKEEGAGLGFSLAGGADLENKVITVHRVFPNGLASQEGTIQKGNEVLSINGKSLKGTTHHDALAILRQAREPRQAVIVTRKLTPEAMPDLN

Binder | pKd
MQHQRTHTRV [ZSCAN30, Q86W11] | below the threshold
NIAESLESLV [PTPRZ1, P23471] | below the threshold

target: Inadl_4, Q8NI35; assay: holdup assay; set-up: key: below the threshold = too weak to quantify, mostly under pKd 3.1 to 4; details: plain residues with an end cap or a label only (N-terminal biotin on a linker: ado-ado)
Sequence (Q8NI35 547-651): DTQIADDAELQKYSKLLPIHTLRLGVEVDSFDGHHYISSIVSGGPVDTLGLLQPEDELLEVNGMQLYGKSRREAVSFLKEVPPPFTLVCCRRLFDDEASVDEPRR

Binder | pKd
MQHQRTHTRV [ZSCAN30, Q86W11] | below the threshold
NIAESLESLV [PTPRZ1, P23471] | below the threshold

target: LIMK2, P53671; assay: holdup assay; set-up: key: below the threshold = too weak to quantify, mostly under pKd 3.1 to 4; details: plain residues with an end cap or a label only (N-terminal biotin on a linker: ado-ado)
Sequence (P53671 143-248): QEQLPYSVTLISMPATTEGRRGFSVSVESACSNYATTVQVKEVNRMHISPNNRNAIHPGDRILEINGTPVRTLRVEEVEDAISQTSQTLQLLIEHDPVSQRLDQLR

Binder | pKd
MQHQRTHTRV [ZSCAN30, Q86W11] | below the threshold
NIAESLESLV [PTPRZ1, P23471] | below the threshold

target: T7, LIN7C, Q9NUP9; assay: holdup assay; set-up: key: below the threshold = too weak to quantify, mostly under pKd 3.1 to 4; details: plain residues with an end cap or a label only (N-terminal biotin on a linker: ado-ado)

Binder | pKd
MQHQRTHTRV [ZSCAN30, Q86W11] | below the threshold
NIAESLESLV [PTPRZ1, P23471] | 4.08

target: LNX1_1, Q8TBB1; assay: holdup assay; set-up: key: below the threshold = too weak to quantify, mostly under pKd 3.1 to 4; details: plain residues with an end cap or a label only (N-terminal biotin on a linker: ado-ado)
Sequence (Q8TBB1 261-371): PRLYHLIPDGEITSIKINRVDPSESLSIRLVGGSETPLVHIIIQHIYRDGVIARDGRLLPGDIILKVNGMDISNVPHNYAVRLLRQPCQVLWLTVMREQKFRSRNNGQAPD

Binder | pKd
MQHQRTHTRV [ZSCAN30, Q86W11] | 3.49
NIAESLESLV [PTPRZ1, P23471] | 4.36

target: T8, LNX2_2, Q8N448; assay: holdup assay; set-up: key: below the threshold = too weak to quantify, mostly under pKd 3.1 to 4; details: plain residues with an end cap or a label only (N-terminal biotin on a linker: ado-ado)

Binder | pKd
MQHQRTHTRV [ZSCAN30, Q86W11] | 4.47
NIAESLESLV [PTPRZ1, P23471] | 4.05

target: T9, LNX2_3, Q8N448; assay: holdup assay; set-up: key: below the threshold = too weak to quantify, mostly under pKd 3.1 to 4; details: plain residues with an end cap or a label only (N-terminal biotin on a linker: ado-ado)

Binder | pKd
MQHQRTHTRV [ZSCAN30, Q86W11] | below the threshold
NIAESLESLV [PTPRZ1, P23471] | below the threshold

target: MAGI1_2, Q96QZ7; assay: holdup assay; set-up: key: below the threshold = too weak to quantify, mostly under pKd 3.1 to 4; details: plain residues with an end cap or a label only (N-terminal biotin on a linker: ado-ado)
Sequence (Q96QZ7 456-580): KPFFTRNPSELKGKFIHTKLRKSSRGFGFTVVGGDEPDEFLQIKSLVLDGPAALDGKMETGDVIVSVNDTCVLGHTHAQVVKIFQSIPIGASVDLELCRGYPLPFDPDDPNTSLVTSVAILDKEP

Binder | pKd
MQHQRTHTRV [ZSCAN30, Q86W11] | 4.87
NIAESLESLV [PTPRZ1, P23471] | 3.81

target: MAGI2_3, Q86UL8; assay: holdup assay; set-up: key: below the threshold = too weak to quantify, mostly under pKd 3.1 to 4; details: plain residues with an end cap or a label only (N-terminal biotin on a linker: ado-ado)
Sequence (Q86UL8 600-682): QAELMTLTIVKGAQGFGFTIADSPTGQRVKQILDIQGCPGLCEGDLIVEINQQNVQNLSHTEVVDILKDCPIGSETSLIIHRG

Binder | pKd
MQHQRTHTRV [ZSCAN30, Q86W11] | below the threshold
NIAESLESLV [PTPRZ1, P23471] | 4.44

target: T10, MPP2, Q14168; assay: holdup assay; set-up: key: below the threshold = too weak to quantify, mostly under pKd 3.1 to 4; details: plain residues with an end cap or a label only (N-terminal biotin on a linker: ado-ado)

Binder | pKd
MQHQRTHTRV [ZSCAN30, Q86W11] | below the threshold
NIAESLESLV [PTPRZ1, P23471] | below the threshold

target: T11, NHERF3_1, Q5T2W1; assay: holdup assay; set-up: key: below the threshold = too weak to quantify, mostly under pKd 3.1 to 4; details: plain residues with an end cap or a label only (N-terminal biotin on a linker: ado-ado)

Binder | pKd
MQHQRTHTRV [ZSCAN30, Q86W11] | 4
NIAESLESLV [PTPRZ1, P23471] | 4.59

target: NHERF4_1, Q86UT5-2; assay: holdup assay; set-up: key: below the threshold = too weak to quantify, mostly under pKd 3.1 to 4; details: plain residues with an end cap or a label only (N-terminal biotin on a linker: ado-ado)
Sequence (Q86UT5 other isoform, or with tags, fused parts or gaps): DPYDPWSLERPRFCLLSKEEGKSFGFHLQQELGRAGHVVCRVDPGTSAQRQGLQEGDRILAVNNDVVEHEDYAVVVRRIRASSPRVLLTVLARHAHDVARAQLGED

Binder | pKd
MQHQRTHTRV [ZSCAN30, Q86W11] | below the threshold
NIAESLESLV [PTPRZ1, P23471] | 3.7

target: T12, PTPN13_1, Q12923; assay: holdup assay; set-up: key: below the threshold = too weak to quantify, mostly under pKd 3.1 to 4; details: plain residues with an end cap or a label only (N-terminal biotin on a linker: ado-ado)

Binder | pKd
MQHQRTHTRV [ZSCAN30, Q86W11] | below the threshold
NIAESLESLV [PTPRZ1, P23471] | below the threshold

target: PTPN3, P26045; assay: holdup assay; set-up: key: below the threshold = too weak to quantify, mostly under pKd 3.1 to 4; details: plain residues with an end cap or a label only (N-terminal biotin on a linker: ado-ado)
Sequence (P26045 505-587): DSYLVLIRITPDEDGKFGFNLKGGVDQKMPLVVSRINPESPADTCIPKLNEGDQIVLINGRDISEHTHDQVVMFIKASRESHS

Binder | pKd
MQHQRTHTRV [ZSCAN30, Q86W11] | below the threshold
NIAESLESLV [PTPRZ1, P23471] | 4.64

target: SCRIB_2, Q14160; assay: holdup assay; set-up: key: below the threshold = too weak to quantify, mostly under pKd 3.1 to 4; details: plain residues with an end cap or a label only (N-terminal biotin on a linker: ado-ado)
Sequence (Q14160 857-960): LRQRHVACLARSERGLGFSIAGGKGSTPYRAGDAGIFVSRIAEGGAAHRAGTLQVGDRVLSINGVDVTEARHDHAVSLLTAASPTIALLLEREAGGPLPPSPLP

Binder | pKd
MQHQRTHTRV [ZSCAN30, Q86W11] | 3.79
NIAESLESLV [PTPRZ1, P23471] | 3.66

target: SCRIB_3, Q14160; assay: holdup assay; set-up: key: below the threshold = too weak to quantify, mostly under pKd 3.1 to 4; details: plain residues with an end cap or a label only (N-terminal biotin on a linker: ado-ado)
Sequence (Q14160 999-1103): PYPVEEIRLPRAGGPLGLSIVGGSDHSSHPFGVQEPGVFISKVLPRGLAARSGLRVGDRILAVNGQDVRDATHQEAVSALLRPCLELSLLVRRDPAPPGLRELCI

Binder | pKd
MQHQRTHTRV [ZSCAN30, Q86W11] | 3.51
NIAESLESLV [PTPRZ1, P23471] | 3.87

target: TJP2_1, Q9UDY2; assay: holdup assay; set-up: key: below the threshold = too weak to quantify, mostly under pKd 3.1 to 4; details: plain residues with an end cap or a label only (N-terminal biotin on a linker: ado-ado)
Sequence (Q9UDY2 24-128): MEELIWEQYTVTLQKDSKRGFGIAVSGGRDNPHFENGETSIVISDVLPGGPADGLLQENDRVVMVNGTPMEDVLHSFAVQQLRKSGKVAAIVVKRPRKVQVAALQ

Binder | pKd
MQHQRTHTRV [ZSCAN30, Q86W11] | 4.16
NIAESLESLV [PTPRZ1, P23471] | below the threshold
